In PMC12615798:

Biological target: cystatin C^EX (human) (UniProt P01034)
Assay: ELISA; two-fold serial dilutions of cystatin C^EX coated on the plate overnight at 4 °C, 10 μg/mL ECD-Fc added for 2 h at room temperature, anti-human-IgG-Fc-HRP

Chain of UniProt P01034 (P01034 27-146): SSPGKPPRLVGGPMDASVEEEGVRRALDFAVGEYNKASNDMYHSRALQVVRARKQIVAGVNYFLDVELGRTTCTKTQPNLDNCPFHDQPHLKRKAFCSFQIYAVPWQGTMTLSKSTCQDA

Row | Substance | EC50 [nM]
1 | LILRB2 ECD-Fc (commercial) (from UniProt Q8N423 22-460) (Fc fusion) | 22.8
2 | LILRB5 ECD-Fc (commercial) (from UniProt O75023 24-458) (Fc fusion) | 1180
